Consider two molecules from US9624471B2, “Methods for maturing cardiomyocytes and uses thereof” (UNIVERSITY OF WASHINGTON THROUGH ITS CENTER FOR …, priority 2013, dated 2017).

The subject of data set [1] is RUES2-CMs. The data set can be described thus: Immunocytochemistry (α-actinin staining) and morphological analysis of lentivirally transduced cardiomyocytes. The class given is cell-based, human. Conditions: for cell perimeter / cell area: let-7 OE CMs at roughly day 30; for cell perimeter: EV control 108±15 μm, n=50 cells per condition; for cell perimeter / cell area / sarcomere length: P<0.001; for cell area: EV control 380±70 μm^2; for Circularity index (4πArea/(perimeter)^2) / sarcomere length: let-7 OE CMs; for Circularity index (4πArea/(perimeter)^2): EV control 0.41±0.02; for sarcomere length: EV control 1.65±0.02 μm. How it is done:
Undifferentiated human embryonic stem cell (hESCs) lines H7 (NIHhESCC-10-0061) and RUES2 (NIHhESC-09-0013) were expanded using mouse embryonic fibroblast-conditioned medium with 5 ng/ml basic fibroblast growth factor. H7-CMs were derived using previously reported protocols^1-3. RUES2-CMs were used for all functional analyses and these were derived using a cardiac progenitor cell differentiation protocol^4 derived from previously reported monolayer directed differentiation methods^1, 5, 6. In brief, this involves the induction of a monolayer of hESCs with activin A and bone morphogenetic protein-4 (BMP4) under serum- and insulin-free conditions. During the early stages of differentiation, the cells were also exposed to the Wnt agonist CHIR 99021 followed by the Wnt antagonist Xav939. From 7 days of in vitro differentiation, the cells were fed every alternate day with serum-free RPMI-B27 plus insulin media. After 20 days of in vitro differentiation, the cells were trypsinized and replated. Only those cell preparations that had at least 70% cardiac troponin T-positive CMs (as observed by flow cytometry) were used for further experiments. For experiments where the H7-CMs were cultured for around a year, the cells were replated after the 3rd and 11th month from day 0. At the 11th month, FACS analysis for cTnT was conducted and the CMs were split into three parts and were cultured as three independent replicates for another 1.5 months after which they were harvested for RNA extraction. IMR90iPSC-CMs cultured for 1 yr were replated at day 20 and split every 2 months for 12 months before harvesting for RNA extraction. To generate engineered cardiac tissue, the inventors used the procedure reported by Tulloch et al.^2 In brief, day 20 CMs are suspended in the collagen gel at 10,000/μl, and rod-shaped constructs of 25 μl (1 mm radius×8 mm length) were generated by casting in a preformed mold and warming to 37° C. The ends of the mold contain Velcro-like micro-fiber loops, and these become impregnated with gel+cell mixture. These tabs allow the constructs to be maintained under static tension, which facilitates alignment and differentiation of the CMs. The constructs were maintained in the serum-free RPMI-B27 plus glutamine media up to 2 weeks. For let-7 overexpression analysis, the CMs were transduced with the virus carrying the pLKO-let-7 or empty vector control pLKO plasmid at day 12 of the directed differentiation protocol. After overnight transduction the virus was removed, cells were rinsed with PBS and new media added. The samples were analyzed at day 30 from the initiation of differentiation.
All morphological analyses were carried out using at least 50 cells. Cells replated in chamber slides were fixed in 4% paraformaldehyde for 15 minutes followed by PBS wash. The fixed cells were blocked for an hour with 1.5% normal goat serum and incubated O/N with mouse alpha actinin (sigma) primary antibody. The primary antibody was rinsed with PBS and incubated with secondary antibody (Alexa fluor 488 [Goat anti mouse]) for an hour followed by nuclear staining using DAPI. For cell area and perimeter measurements, images were acquired and processed using ZEISS™ AXIO fluorescent microscope and AXIOVISION™ software. For sarcomere length, images were acquired and processed using LEICA™ TCS-SPE confocal microscope and LEICA™ software. These confocal images were used to select 1-2 myofibrils per cell with at least ten continuous, well-recognized alpha-actinin bands and divided the length value by the number of sarcomeres. The images were further analyzed using IMAGE J™ software.
For lenti-let-7 OE constructs, Pri-miR-let-7i and pri-miR-let-7g sequence was amplified from H7 genomic DNA using forward primer for let-7i-TCCGCGTGGTCCCGT; reverse primer for let-7i-ATTGTCCTCCGCGGCGC and forward primer for let-7g-AGAGTTCCTCCAGCGCTCC; reverse primer for let-7g-CCCCACTTGGCAGCTGGC, resulting in 153 bp and 154 bp products, respectively. […]

Data set [2] deals with IMR90 iPSC-CMs. The data set can be described thus: let-7 over-expression in IMR90 iPSC derived cardiomyocytes, qPCR. The settings on record: for let-7 over expression relative to empty vector (EV) control: pLKO-lentiviral OE for up to 2 weeks; for cardiomyocyte maturation markers expression / let-7 targets (lin28 and HMGA2) expression: qPCR. It counts as cell-based. An excerpt:
FIGS. 19A-19B show let-7 over-expression (OE) in IMR90 iPSC derived cardiomyocytes (IMR90 iPSC-CMs). A pLKO-lentiviral based system was used to overexpress let-7g and let-7i in IMR90-iPSC-CMs for up to 2 weeks. […] Experiments were validated with 3 biological and 3 technical replicates. FIG. 19B qPCR validated the down-regulation of let-7 targets (lin28 and HMGA2) and upregulation of cardiomyocyte maturation markers in let-7i OE and let-7g OE CMs.
Total RNAs were extracted with miRNeasy™ mini kit (QIAGEN™) or using TRIZOL™ (INVITROGEN™). RNA was DNAse treated with DNA-free kit (AMBION™). miR-let-7g and mir-let-7i taqman assays (APPLIED BIOSYSTEMS) were used for miRNAqPCRs following the manufacturer's protocol using RNU66 snoRNA as a loading control. For mRNA qPCR, reverse transcription reaction was carried out using Omniscript™ RT kit (QIAGEN™). Primers for CTNT, MYH7, RYR2, SERCA2 and GJA1 were based on Tulloch et a1^2. Primers for HCN4, KCNJ2, SCN5A, HMGA1, HMGA2, IRS2, INSR, LIN28, SLC27A6 and FABP2, CD36, PPARA, TRIM71, EGR1, CDKN1A were purchased from Real Time Primers. qPCR was performed using SYBR green chemistry and ABI 7300 Real time PCR system. Samples were normalized using GAPDH as a house keeping gene.
In general terms: Real-time PCR tracks product formation cycle by cycle.

B1: let-7g: human let-7 family miRNA, SEQ ID NO: 9, overexpressed from pLKO lentiviral pri-miR-let-7g construct (nucleic acid, listed as Homo sapiens)
chain: AGGCUGAGGUAGUAGUUUGUACAGUUUGAGGGUCUAUGAUACCACCCGGUACAGGAGAUAACUGUACAGGCCACUGCCUUGCCA
On to B1, for which, in data set [1], the cell perimeter came to 302±3 μm, the cell area came to 980±95 μm^2, the “Circularity index (4πArea/(perimeter)^2)” value is listed as 0.12±0.02 and the sarcomere length was 1.69±0.01 μm. Moreover, in data set [2], the “let-7 over expression relative to empty vector (EV) control” value is recorded as no more than 10 fold; the “cardiomyocyte maturation markers expression” value was “upregulation”; the “let-7 targets (lin28 and HMGA2) expression” value is listed as “down-regulation”.

B2: let-7i: human let-7 family miRNA, SEQ ID NO: 10, overexpressed from pLKO lentiviral pri-miR-let-7i construct (nucleic acid, listed as Homo sapiens)
chain: CUGGCUGAGGUAGUAGUUUGUGCUGUUGGUCGGGUUGUGACAUUGCCCGCUGUGGAGAUAACUGCGCAAGCUACUGCCUUGCUA
On to B2, for which, in data set [1], the cell perimeter came to 300±7.4 μm, the cell area is 1110±101 μm^2, the “Circularity index (4πArea/(perimeter)^2)” value was 0.15±0.04 and the sarcomere length is 1.70±0.01 μm. In data set [2], the “let-7 over expression relative to empty vector (EV) control” value is “up to 8 fold”; the “cardiomyocyte maturation markers expression” value is “upregulation”; the “let-7 targets (lin28 and HMGA2) expression” value was “down-regulation”.
